Reference: patent publication US20240209089A1 (SUZHOU SMARTNUCLIDE BIOPHARMACEUTICAL, published 2024)
Numbering of substitutions follows the chain as printed. “And” between values parts separate entries of the source, which are not always exact repeats. Equal entries are not always repeated.

What was measured:
CD8α-Fc fusion protein [1] = biological target: T1, CD8α-Fc fusion protein (human); assay: ELISA on coated CD8α-Fc, relative to C2-cHis control
T1 construct: also called CD8 α-Fc protein; CD8α-Fc tag antigen
T1 sequence (chain, as listed by the source): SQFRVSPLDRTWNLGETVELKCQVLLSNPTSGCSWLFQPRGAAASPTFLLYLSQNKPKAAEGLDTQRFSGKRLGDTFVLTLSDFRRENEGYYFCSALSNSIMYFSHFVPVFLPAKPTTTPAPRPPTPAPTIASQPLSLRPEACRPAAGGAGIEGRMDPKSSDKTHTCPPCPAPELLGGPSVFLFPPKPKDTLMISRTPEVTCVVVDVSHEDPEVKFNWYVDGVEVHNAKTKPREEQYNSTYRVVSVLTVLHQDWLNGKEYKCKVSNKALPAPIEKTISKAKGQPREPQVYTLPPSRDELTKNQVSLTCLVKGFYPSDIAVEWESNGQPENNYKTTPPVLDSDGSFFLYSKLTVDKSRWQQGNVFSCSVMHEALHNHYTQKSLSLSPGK
Method: (§1) The CD8 α-Fc protein was transiently expressed by HEK293 and purified by protein A affinity chromatography. The plate was coated with the obtained CD8α-Fc protein in a concentration of 0.5 μg/well at 4° C. overnight, and then the gradient dilution series of the obtained anti-CD8α single domain antibody protein was added to react for 1 hour at room temperature. After washing, anti-his horseradish peroxidase labeled antibody was added to react for 1 hour at room temperature. After washing, a chromogenic solution was added, and an absorption value at 450 nm was read. The data processing and plotting analysis were performed by using software SotfMaxPro v5.4. […] Of the 10 selected antibodies (see Table 5 for details), the relative activities of different anti-CD8α single domain antibodies were compared by using C2-cHis as control, so as to reflect the affinity of the antibodies on CD8α. Of the 10 tested antibodies, C37, C42, C46, S5 and S36 have relatively high binding activity.

CD8α-Fc fusion protein [2] = biological target: T1, CD8α-Fc fusion protein; assay: ELISA on coated CD8α-Fc, anti-his-HRP, four-parameter fit
Method: as §1

[3] = biological target: T2, human CD8α full-length protein (human, UniProt P01732 22-235); assay: flow cytometry on MC38-CD8α cells, secondary antibody-PE
T2 construct: whole, on cells; The same entry is used for MC38-CD8α transfectants and for human CD8+ T cells from peripheral blood; the assay field says which cells; also called cell surface CD8α; MC38-CD8α cells
T2 sequence (P01732 22-235): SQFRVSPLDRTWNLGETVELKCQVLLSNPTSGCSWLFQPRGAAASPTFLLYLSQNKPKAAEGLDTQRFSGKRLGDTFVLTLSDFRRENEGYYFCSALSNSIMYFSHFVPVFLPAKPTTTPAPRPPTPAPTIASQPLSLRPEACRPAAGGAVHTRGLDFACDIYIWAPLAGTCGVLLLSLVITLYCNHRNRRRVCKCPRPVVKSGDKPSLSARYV
Method: Mouse colon cancer MC38 cell lines stable transfected with human CD8α full-length protein gene were constructed to obtain MC38 cells (MC38-CD8α cells) stably expressing human CD8α proteins on the cell membrane. Prior to use, the cells were cultured to >90% convergence. The anti-CD8α single domain antibody was used to perform flow cytometry on these cells for quantitative analysis of indirect immunofluorescence staining so as to determine the quantity of receptors on surface of each cell.
The cells were collected and suspended to a concentration of 2.5×10⁶ cells/mL. 200 μL of cell aliquot samples were mixed with 20 μL of primary antibody, and the obtained mixture was incubated for 30 min on ice. The cells were centrifuged, washed and re-suspended, then 5 μL of secondary antibody-PE conjugate was added, and then the above mixture was incubated for 30 minutes on ice. The cells were washed twice, re-suspended and underwent flow cytometry on BD FACSCelesta™. For each tube, at least 5×10⁴ events were collected. All the analyses were single colors, and PE was detected in […].

[4] = biological target: T2, human CD8α full-length protein; assay: radioligand saturation binding on MC38-CD8 cells, 4 °C, one-site fit
Method: (§2) Receptor binding reaction: a radioligand saturation method was used, total binding and non-specific binding groups were included.
(§3) The cells were incubated for 2 h at 4° C. After that, the supernatant was extracted, the cells were washed 6 times with PBS pre-cooled at 4° C., and 200 μL of PBS was added into each well every time. Finally, the filter membrane was collected, the radioactivity count of each tube of sample and standard sample was measured on the γ counter. Finally, saturation curve fitting was performed by using Prism 7.0 (GraphPad Software, Inc.) software according to the single-point binding model, and then KD and Bmax were calculated.

[5] = biological target: T2, human CD8α full-length protein; assay: saturation radioligand binding on MC38-CD8 cells, 2 h at 4 °C, one-site fit; panel assigned through the KD of Table 8 (3.8 nM, 125I-SNA006c)
Method: as §2, §3

CD8α-Fc fusion protein [6] = biological target: T1, CD8α-Fc fusion protein; assay: ELISA on coated CD8α-Fc, antibody after exchange into NaHCO3 buffer, relative to the uncoupled antibody as standard
Method: (§4) By using PD-10 column (GE), the buffer of the CD8α-cHis single domain antibody (including C37, C46 and S5) was changed to a NaHCO3 buffer solution with a certain pH, and p-SCN-Bn-NOTA (Macrocyclics, article No. B-605) was dissolved into DMSO with a concentration of 25 mg/mL, and the p-SCN-Bn-NOTA solution whose molar was twice that of lysine on the single domain antibody was added into the CD8α single domain antibody, the above materials reacted for a certain time period at room temperature, the conjugated product was purified by PD-10 column (GE) and concentrated by ultrafiltration.
(§5) The activity of the above CD8α-NOTA after labeling was determined by ELISA. The specific method is as follows: the CD8α-Fc fusion protein was placed in the coated plate in a concentration of 5 μg/well at 4° C. overnight. After blocking with 3% BSA at 37° C., samples subjected to gradient dilution (the uncoupled CD8α single domain antibody was a standard substance) were added to act for 1 hour at 37° C. Then, anti-his-HRP (purchased from Abcam Company) was added to react for 1 hour at room temperature. Then, a chromogenic solution was added, and the absorption value at 450 nm was read.

CD8α-cHis fusion protein = biological target: T3, CD8α-cHis fusion protein (UniProt P01732 22-182); assay: BLI (ForteBio Octet), biotinylated antibody on SA sensor, CD8α-chis 6.25-100 nM
T3 construct: not shown: C-terminal His tag
T3 sequence (P01732 22-182): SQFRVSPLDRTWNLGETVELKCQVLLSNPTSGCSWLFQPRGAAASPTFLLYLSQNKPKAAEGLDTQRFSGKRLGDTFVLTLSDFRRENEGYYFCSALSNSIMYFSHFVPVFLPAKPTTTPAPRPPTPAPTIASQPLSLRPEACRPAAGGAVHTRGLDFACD
Method: The anti-CD8α single domain antibody-biontin was fixed on an SA biological sensor. Then, CD8α-chis with a concentration of 6.25-100 nM bound to a nano antibody and then dissociated. The binding dynamic variables of four antibodies C37, C42, C46 and S5 were evaluated and determined by using Octet Data Analysis version 9.0, including Kon, Koff and Kd.

CD8α-Fc fusion protein [7] = biological target: T1, CD8α-Fc fusion protein; assay: ELISA on coated CD8α-Fc, NOTA conjugate, relative to the uncoupled antibody as standard
Method: as §4, §5

CD8α-Fc fusion protein [8] = biological target: T1, CD8α-Fc fusion protein; assay: ELISA on coated CD8α-Fc; C2-cHis is the control (=100)
Method: as §1

B1: S36-cHis antibody (VHH)
VHH: QVQLVESGGGLVQAGGSLRLSCAASIRTFSDYAMAWFRQGPRKEREFVAAISWNGVTTFYADSVKGRFTISRDDAKNSVYLQMNSLKPEDTAVYYCAGGLNVGWGTHEREYDDWGQGTQVTVSS
notes: HEK293 construct; an E. coli preparation is also described
For B1, the “Relative activity (%)” value (CD8α-Fc fusion protein [1]) was 289%, the EC50 (CD8α-Fc fusion protein [2]) was 1.42 ng/mL and the “Positive rate (%)” value [3] was 99.7%.

B2: ^125I-SNA006c (VHH)
VHH: QVQLVESGGGLVQAGGSLRLSCAASGVTFDDLAIGWFRQVPGKGREGVSTIGTSDGTAYYADSVKGRFTISSDNAKNTVYLQMNSLKPEDTAVYYCAVDLDYGLGSLLPMGYDYWGQGTQVTVSS
modifications: 125I label by the chloramine T method; labelled residues not stated
B2 was tested, and the Kd [4] was 3.8 nM and the Kd [5] was 3.84 nM.

B3: C46-cHis antibody (VHH)
VHH: B2 VHH
notes: HEK293 construct; an E. coli preparation is also described; Biotinylated for the ForteBio assay; also called SNA006c; SNA006-c
For B3, the “Relative activity of CD8α-cHis-NaHCO3 (%)” value (CD8α-Fc fusion protein [6]) was 76%, the “Relative activity (%)” value (CD8α-Fc fusion protein [1]) was 175% and the Kd (CD8α-cHis fusion protein) was 1.08 nM. It also gave a koff (CD8α-cHis fusion protein) of 0.000271 s⁻¹, a kon (CD8α-cHis fusion protein) of 251000 M⁻¹ s⁻¹ and an EC50 (CD8α-Fc fusion protein [2]) of 1.82 ng/mL. The “Positive rate (%)” value [3] was 99.5%.

B4: C46-cHis-NOTA (VHH)
VHH: B2 VHH
modifications: p-SCN-Bn-NOTA coupled (lysine); sites and number not stated
notes: also called CD8α-cHis-NOTA (C46)
For B4, the “Relative activity of CD8α-cHis-NOTA (%)” value (CD8α-Fc fusion protein [7]) was 20%.

B5: C42-cHis antibody (VHH)
VHH: QVQLVESGGGLVQAGGSLRLSCAASGLTFEDYAIGWFRQAPGKEREGISCIRIYDGNTYSAESVKGRFTISSDNAKNQVYLQINTLKPEDTAVYYCAAGSYYSCSVYPDYDMDYWGKGTLVTVSS
notes: HEK293 construct; an E. coli preparation is also described; Biotinylated for the ForteBio assay; also called SNA006b; SNA006-b
In the case of B5, the “Relative activity (%)” value (CD8α-Fc fusion protein [1]) is reported as 269%, the Kd (CD8α-cHis fusion protein) is reported as 0.727 nM and the koff (CD8α-cHis fusion protein) is reported as 0.00042 s⁻¹. For the same binder, the kon (CD8α-cHis fusion protein) was 578000 M⁻¹ s⁻¹, the EC50 (CD8α-Fc fusion protein [2]) was 1.18 ng/mL and the “Positive rate (%)” value [3] was 99.9%.

B6: C2-cHis antibody (VHH)
VHH: B5 VHH with A14P, L27F, F29L, E30D, D31Y
notes: HEK293 construct; An E. coli (PET22b) preparation is also described
With B6 the “Relative activity (%)” value (CD8α-Fc fusion protein [8]) was 100%, the EC50 (CD8α-Fc fusion protein [2]) was 2.2 ng/mL and 3.18 ng/mL and 4.11 ng/mL and the “Positive rate (%)” value [3] was 99.9%.

B7: ^125I-SNA006a (VHH)
VHH: B5 VHH with V2L
modifications: 125I label by the chloramine T method; labelled residues not stated
B7 showed a Kd [4] of 0.46 nM.

B8: C37-cHis-NOTA (VHH)
VHH: B5 VHH with V2L
modifications: p-SCN-Bn-NOTA coupled (lysine); sites and number not stated
notes: also called CD8α-cHis-NOTA (C37); NOTA-CD8α single domain antibody precursor
In the case of B8, the “Relative activity of CD8α-cHis-NOTA (%)” value (CD8α-Fc fusion protein [7]) is reported as 77%.

B9: C29-cHis antibody (VHH)
VHH: QVQLVESGGGLVQAGGSLRLSCVASGFTSDDYVIGWFRQAPGKEREGVSCISSSDGTTNYADSVKGRFTISSDNAKNTVYLQMNSLKPEDTAVYYCAADPMRVCPYSGTYYGILGFGTSGQGTQVTVSS
notes: as for B1
B9 was tested, and the “Relative activity (%)” value (CD8α-Fc fusion protein [1]) was 61.9%, the EC50 (CD8α-Fc fusion protein [2]) was 3.55 ng/mL and the “Positive rate (%)” value [3] was 98.4%.

B10: S5-cHis antibody (VHH)
VHH: QVQLVESGGGLVQAGGSLRVSCAASGGTFSSTAMGWFRQAPGKEREFVAAISWSGGYTYYADSVRGRFTISRDNALNTVSLQMNSLKPEDTAVYYCAADISGLDTVAAGIFTEPNIDYWGKGTLVTVSS
notes: HEK293 construct; an E. coli preparation is also described; Biotinylated for the ForteBio assay; also called SNA006d; SNA006-d
For B10, the “Relative activity of CD8α-cHis-NaHCO3 (%)” value (CD8α-Fc fusion protein [6]) was 98%, the “Relative activity (%)” value (CD8α-Fc fusion protein [1]) was 180% and the Kd (CD8α-cHis fusion protein) was 2.87 nM. It also gave a koff (CD8α-cHis fusion protein) of 0.000445 s⁻¹, a kon (CD8α-cHis fusion protein) of 155000 M⁻¹ s⁻¹ and an EC50 (CD8α-Fc fusion protein [2]) of 2.28 ng/mL. For the same binder, the “Positive rate (%)” value [3] was 99.7%.

B11: ^125I-SNA006d (VHH)
VHH: B10 VHH
modifications: 125I label by the chloramine T method; labelled residues not stated
Binder B11 has a Kd [4] of 1.5 nM.

B12: S5-cHis-NOTA (VHH)
VHH: B10 VHH
modifications: p-SCN-Bn-NOTA coupled (lysine); sites and number not stated
notes: also called CD8α-cHis-NOTA (S5)
For B12, the “Relative activity of CD8α-cHis-NOTA (%)” value (CD8α-Fc fusion protein [7]) was 105%.

B13: S13-cHis antibody (VHH)
VHH: QLQLVESGGGLVQPGGSLRLSCVVSGSIFAINTMGWYRQAPGKQRELVATMHSYGSTNYADSVKGRFTISRDNAKKTVYLQMNSLKPADTAVYYCHADDTGWGTVDSWGQGTQVTVSS
notes: as for B1
For B13, the “Relative activity (%)” value (CD8α-Fc fusion protein [1]) was 142%, the EC50 (CD8α-Fc fusion protein [2]) was 2.89 ng/mL and the “Positive rate (%)” value [3] was 96.3%.

B14: C27-cHis antibody (VHH)
VHH: B13 VHH with Y54G, N73A, K75P, T100S, T112I
notes: as for B1
With B14 the “Relative activity (%)” value (CD8α-Fc fusion protein [1]) was 96.4%, the EC50 (CD8α-Fc fusion protein [2]) was 2.28 ng/mL and the “Positive rate (%)” value [3] was 93.6%.

B15: C24-cHis antibody (VHH)
VHH: B13 VHH with L2V, V23A, V24A, S27P, A30S, Y54T, A88D, A97V, T112I
notes: as for B1
B15 was tested, and the “Relative activity (%)” value (CD8α-Fc fusion protein [1]) was 47.9%, the EC50 (CD8α-Fc fusion protein [2]) was 4.59 ng/mL and the “Positive rate (%)” value [3] was 99.4%.
